The target in data set [1] is T1, SPbeta integrase-RDF fusion (SprA-SprB) (Bacillus subtilis phage SPbeta, UniProt O32006 1-545+=TSGSGGSGGSGGSGRSGT+O34850:2-58, internal_change).
T1 sequence: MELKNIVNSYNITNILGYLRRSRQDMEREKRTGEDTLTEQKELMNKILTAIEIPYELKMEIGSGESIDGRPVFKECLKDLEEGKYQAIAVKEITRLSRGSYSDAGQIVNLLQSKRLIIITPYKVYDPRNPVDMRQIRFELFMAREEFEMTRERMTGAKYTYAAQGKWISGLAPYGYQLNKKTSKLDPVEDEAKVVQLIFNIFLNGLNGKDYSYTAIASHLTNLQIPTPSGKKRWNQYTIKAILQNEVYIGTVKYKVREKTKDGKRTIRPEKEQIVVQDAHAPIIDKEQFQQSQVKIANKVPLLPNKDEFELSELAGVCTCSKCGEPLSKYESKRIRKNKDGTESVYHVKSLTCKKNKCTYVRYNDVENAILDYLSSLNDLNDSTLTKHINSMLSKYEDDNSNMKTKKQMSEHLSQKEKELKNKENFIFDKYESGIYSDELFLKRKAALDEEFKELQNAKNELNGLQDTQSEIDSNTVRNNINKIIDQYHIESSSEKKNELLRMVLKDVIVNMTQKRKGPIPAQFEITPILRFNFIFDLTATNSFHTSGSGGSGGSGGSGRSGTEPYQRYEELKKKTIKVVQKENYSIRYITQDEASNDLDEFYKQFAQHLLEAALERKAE
The data set can be described thus: SEC. For orientation: Size exclusion chromatography separates by hydrodynamic size, large species first.

A further data set concerns the target T2, SPbeta integrase (SprA) (Bacillus subtilis phage SPbeta, UniProt O32006 1-545).
T2 sequence: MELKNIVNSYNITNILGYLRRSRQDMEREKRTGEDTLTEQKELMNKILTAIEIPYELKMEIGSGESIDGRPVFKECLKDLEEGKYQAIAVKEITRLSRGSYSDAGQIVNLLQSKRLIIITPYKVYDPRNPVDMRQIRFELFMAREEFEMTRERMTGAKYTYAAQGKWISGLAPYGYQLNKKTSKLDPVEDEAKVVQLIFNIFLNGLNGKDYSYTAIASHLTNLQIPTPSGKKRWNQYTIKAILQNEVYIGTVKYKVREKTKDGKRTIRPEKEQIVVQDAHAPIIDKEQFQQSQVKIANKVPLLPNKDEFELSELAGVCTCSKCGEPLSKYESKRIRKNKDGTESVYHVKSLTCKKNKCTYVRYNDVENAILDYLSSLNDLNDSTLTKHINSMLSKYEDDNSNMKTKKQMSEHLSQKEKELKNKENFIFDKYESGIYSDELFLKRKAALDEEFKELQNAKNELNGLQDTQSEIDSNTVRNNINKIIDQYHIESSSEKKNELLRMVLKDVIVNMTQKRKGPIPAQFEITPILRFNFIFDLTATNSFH
The experiment in a line: SEC.

B1: attPmm (dsDNA)
DNA 1: AAAAAAAAGGTAGTAAGTATCTTAAAAAACAGATTTAGCTGTATATTAAGATACTTACTAC
DNA 2: GTAGTAAGTATCTTAATATACAGCTTTATCTGTTTTTTAAGATACTTACTACTTTTTTTTT
Take B1: the binding result (in data set [1]; with SPbeta integrase (SprA)) was “binds” each time.

These data come from article PMC11722253.
